Values of other authors as cited in patent US6468965B1, “Pharmaceutical composition for oral administration of a mixture of chelating agents” (priority 2002, dated 2002).

Columns and labels:
[1] = system: VEGF165-Mediated Angiogenesis; details: orally administered; literature report, Int. J. Cancer 2001
[2] = system: Porphyromonas gingivalis; details: literature report, J. Biol. Chem. 2000
[3] = system: colon 26 carcinoma; details: orally administered; literature report, Nutrition and Cancer 2000

B1: lactoferrin (protein, UniProt P24627 20-708, looked up)
Lactotransferrin: APRKNVRWCTISQPEWFKCRRWQWRMKKLGAPSITCVRRAFALECIRAIAEKKADAVTLDGGMVFEAGRDPYKLRPVAAEIYGTKESPQTHYYAVAVVKKGSNFQLDQLQGRKSCHTGLGRSAGWIIPMGILRPYLSWTESLEPLQGAVAKFFSASCVPCIDRQAYPNLCQLCKGEGENQCACSSREPYFGYSGAFKCLQDGAGDVAFVKETTVFENLPEKADRDQYELLCLNNSRAPVDAFKECHLAQVPSHAVVARSVDGKEDLIWKLLSKAQEKFGKNKSRSFQLFGSPPGQRDLLFKDSALGFLRIPSKVDSALYLGSRYLTTLKNLRETAEEVKARYTRVVWCAVGPEEQKKCQQWSQQSGQNVTCATASTTDDCIVLVLKGEADALNLDGGYIYTAGKCGLVPVLAENRKSSKHSSLDCVLRPTEGYLAVAVVKKANEGLTWNSLKDKKSCHTAVDRTAGWNIPMGLIVNQTGSCAFDEFFSQSCAPGADPKSRLCALCAGDDQGLDKCVPNSKEKYYGYTGAFRCLAEDVGDVAFVKNDTVWENTNGESTADWAKNLNREDFRLLCLDGTRKPVTEAQSCHLAVAPNHAVVSRSDRAAHVKQVLLHQQALFGKNGKNCPDKFCLFKSETKNLLFNDNTECLAKLGGRPTYEEYLGTEYVTAIANLKKCSTSPLLEACAFLTR
notes: 80 kDa mammalian iron-chelating glycoprotein obtainable from the whey protein of cow's milk
[1]
  effect on angiogenesis: inhibiting angiogenesis
[2]
  action on growth of the bacteria responsible for gingivitis: inhibiting action
[3]
  effect on the lung colonization of colon 26 carcinoma: significant inhibiting effect
